Positions count from the first letter of the chain named. One block for each binder: values may come before it. No end group written: not given here. fluorescein = fluorescein label on the N-terminus, attached through a 6-aminohexanoyl (Ahx) spacer; Ahx = NCCCCCC(=O)O
T1: rhophilin 2-PDZ K576A/K579A (human, UniProt Q8IUC4 515-593, K576A | K579A)
T1 sequence (looked up): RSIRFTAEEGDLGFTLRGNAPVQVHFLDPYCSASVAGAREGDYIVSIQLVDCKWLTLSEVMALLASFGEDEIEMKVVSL

T2: rhophilin 2-PDZ K576E/K579E (human, UniProt Q8IUC4 515-593, K576E | K579E)
T2 sequence (looked up): T1 sequence (looked up) with A62E, A65E

B1: rhophilin 2-PDZ (PDZ domain of rhophilin-2), wild type (domain or fragment, human, UniProt Q8IUC4 515-593, looked up)
chain: T1 sequence (looked up) with A62K, A65K
B2: F-Ahx-EYLGLDVPV (N-fluorescein-labeled ErbB2 C-terminal peptide) (peptide)
peptide: {fluorescein-Ahx}-EYLGLDVPV

Columns and labels:
[1] = target: tamalin-PDZ (PDZ domain of tamalin), wild type (mouse, UniProt Q9JJA9 100-186); experiment: fluorescence polarisation
tamalin-PDZ (PDZ domain of tamalin), wild type, sequence (Q9JJA9 100-186): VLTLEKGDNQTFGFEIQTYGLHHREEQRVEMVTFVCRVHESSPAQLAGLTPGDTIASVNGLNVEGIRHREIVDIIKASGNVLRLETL

[2] = target: other peptides (tested with rhophilin 2-PDZ, Table S4); experiment: fluorescence polarisation
[3] = target: B2; experiment: fluorescence polarisation
[4] = target: B1; experiment: pull-down
[5] = target: T1, rhophilin 2-PDZ K576A/K579A; experiment: pull-down
[6] = target: T2, rhophilin 2-PDZ K576E/K579E; experiment: pull-down
[7] = target: B1; experiment: fluorescence polarisation

binding result [1]: binds
Binder: {fluorescein-Ahx}-IRDYTQSSSSL [F-Ahx-IRDYTQSSSSL (N-terminal-fluorescein-labeled mGluR5 C-terminal peptide)]

Binder: B1
fold decrease in affinity with PM vesicles against without [2]: < 1.8 fold
fold increase in affinity with PM vesicles against without [3]: 2 fold

binding result [4]: binds
binding result [5]: binds
binding result [6]: binds
Binder: {GST}-EYLGLDVPV [GST-EYLGLDVPV (GST fusion of the C-terminal peptide of ErbB2)]

Binder: B2
binding result [7]: binds
